Data on one substance can be found in patent US20140087436.

What all share (test): cell_activity
In series [1] the target is T1, CbbR G205D/G118D (Ralstonia eutropha) (UniProt P42722).
T1 sequence: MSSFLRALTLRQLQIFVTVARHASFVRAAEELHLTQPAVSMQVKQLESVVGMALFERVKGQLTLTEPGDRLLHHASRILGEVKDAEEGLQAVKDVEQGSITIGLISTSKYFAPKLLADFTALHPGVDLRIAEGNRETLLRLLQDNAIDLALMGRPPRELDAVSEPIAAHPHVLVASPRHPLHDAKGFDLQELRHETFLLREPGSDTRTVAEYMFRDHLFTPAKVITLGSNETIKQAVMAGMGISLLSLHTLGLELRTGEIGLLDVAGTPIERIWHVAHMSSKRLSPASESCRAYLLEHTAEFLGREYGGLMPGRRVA
The note with it: beta-galactosidase, chemoheterotrophic; chemoautotrophic 3939.

Series [2] has as its target T2, CbbR E87K/G242S (Ralstonia eutropha) (UniProt P42722).
T2 sequence: T1 sequence with E87K, D118G, D205G, G242S
Particulars: beta-galactosidase, chemoheterotrophic; chemoautotrophic 4820.

Series [3] concerns the target T3, CbbR G125D (Ralstonia eutropha) (UniProt P42722).
T3 sequence: T1 sequence with D118G, G125D, D205G
Particulars: beta-galactosidase, chemoheterotrophic; chemoautotrophic 6777.

Series [4] has as its target T4, CbbR T232A (Ralstonia eutropha) (UniProt P42722).
T4 sequence: T1 sequence with D118G, D205G, T232A
Particulars: beta-galactosidase, chemoheterotrophic; chemoautotrophic 5269.

In series [5] the target is T5, CbbR A167V (Ralstonia eutropha) (UniProt P42722).
T5 sequence: T1 sequence with D118G, A167V, D205G
Particulars: beta-galactosidase, chemoheterotrophic; chemoautotrophic 7373.

Series [6] has as its target T6, CbbR P221S/T299I (Ralstonia eutropha) (UniProt P42722).
T6 sequence: T1 sequence with D118G, D205G, P221S, T299I
Particulars: beta-galactosidase, chemoheterotrophic; chemoautotrophic 5312.

Series [7] has as its target T7, CbbR P269S/T299I (Ralstonia eutropha) (UniProt P42722).
T7 sequence: T1 sequence with D118G, D205G, P269S, T299I
Particulars: beta-galactosidase, chemoheterotrophic; chemoautotrophic 3879.

Series [8] deals with T8, CbbR L79F (Ralstonia eutropha) (UniProt P42722).
T8 sequence: T1 sequence with L79F, D118G, D205G
The note with it: beta-galactosidase, chemoheterotrophic; chemoautotrophic 6840.

Substitutions are numbered along the chain they refer to.

As for cbb promoter in lacZ reporter strain, the activity in series [1] is 1170 nmol/min/mg; in series [2] it was 303 nmol/min/mg; in series [3], 108 nmol/min/mg; in series [4], 212 nmol/min/mg; in series [5], 768 nmol/min/mg; in series [6], 655 nmol/min/mg. For the same substance, the activity came out at 617 nmol/min/mg in series [7] and 218 nmol/min/mg in series [8].
